Laboratory results taken from patent US20230382997A1 (published 2023).
Substitutions are numbered along the chain they refer to.

Legend:
Experiment in all cases: multimer staining
[1] = molecular target: T1, MAGE A3 peptide on HLA-A*01:01 (human)
T1 peptide: EVDPIGHLY

[2] = molecular target: T2, CT 83 peptide on HLA-A*02:01 (human)
T2 peptide: LLASSILCA

[3] = molecular target: T3, CT 83 peptide on HLA-B*44:02 (human)
T3 peptide: GEMSSNSTAL

[4] = molecular target: T4, MAGE B2 peptide on HLA-A*02:01 (human)
T4 peptide: GVYDGEEHSV

B1: TCR346 (TCR)
alpha TRAV29DV5 TRAJ48 CDR3: CAARDISNFGNEKLTF
Vbeta: GAVVSQHPSRVICKSGTSVKIECRSLDFQATTMFWYRQFPKQSLMLMATSNEGSKATYEQGVEKDKFLINHASLTLSTLTVTSAHPEDSSFYICSARDHTSGTYEQYFGPGTRLTVT
**Q.** Does B1 bind [1]?
**A.** Result: recognises

B2: TCR18 (TCR, V domains shown)
Valpha: AQTVTQSQPEMSVQEAETVTLSCTYDTSESDYYLFWYKQPPSRQMILVIRQEAYKQQNATENRFSVNFQKAAKSFSLKISDSQLGDAAMYFCAYRDNFNKFYFGSGTKLNVKP
Vbeta: DSGVTQTPKHLITATGQRVTLRCSPRSGDLSVYWYQQSLDQGLQFLIQYYNGEERAKGNILERFSAQQFPDLHSELNLSSLELGDSALYFCASSGTGGAYNEQFFGPGTRLTVL
**Q.** Does B2 bind [2]?
**A.** Result: recognises

B3: TCR30 (TCR, V domains shown)
Valpha: EDKVVQSPLSLVVHEGDTVTLNCSYEVTNFRSLLWYKQEKKAPTFLFMLTSSGIEKKSGRLSSILDKKELFSILNITATQTGDSAVYLCAVVPDNTDKLIFGTGTRLQVFP
Vbeta: GAGVSQSPRYKVTKRGQDVALRCDPISGHVSLYWYRQALGQGPEFLTYFNYEAQQDKSGLPNDRFSAERPEGSISTLTIQRTEQRDSAMYRCASSWGGSNTGELFFGEGSRLTVL
**Q.** Does B3 bind [3]?
**A.** Result: recognises

B4: TCR29 (TCR, V domains shown)
Valpha: AQKVTQAQTEISVVEKEDVTLDCVYETRDTTYYLFWYKQPPSGELVFLIRRNSFDEQNEISGRYSWNFQKSTSSFNFTITASQVVDSAVYFCALSEAWGNAGNMLTFGGGTRLMVKP
Vbeta: GAGVSQSPRYKVTKRGQDVALRCDPISGHVSLYWYRQALGQGPEFLTYFNYEAQQDKSGLPNDRFSAERPEGSISTLTIQRTEQRDSAMYRCASSPGQQNTEAFFGQGTRLTVV
**Q.** Does B4 bind [3]?
**A.** Result: recognises

B5: TCR32 (TCR, V domains shown)
Valpha: ILNVEQSPQSLHVQEGDSTNFTCSFPSSNFYALHWYRWETAKSPEALFVMTLNGDEKKKGRISATLNTKEGYSYLYIKGSQPEDSATYLCAFIVHQAGTALIFGKGTTLSVSS
Vbeta: B4 Vbeta with P96L, Q98L, Q99L, N100Y, T101N, A103Q, Q107P, V114L
**Q.** Does B5 bind [3]?
**A.** Result: recognises

B6: TCR54 (TCR, V domains shown)
Valpha: EDQVTQSPEALRLQEGESSSLNCSYTVSGLRGLFWYRQDPGKGPEFLFTLYSAGEEKEKERLKATLTKKESFLHITAPKPEDSATYLCAVYNQAGTALIFGKGTTLSVSS
Vbeta: EAQVTQNPRYLITVTGKKLTVTCSQNMNHEYMSWYRQDPGLGLRQIYYSMNVEVTDKGDVPEGYKVSRKEKRNFPLILESPSPNQTSLYFCASSLYSTDTQYFGPGTRLTVL
**Q.** Does B6 bind [1]?
**A.** Result: recognises

B7: TCR26 (TCR, V domains shown)
Valpha: GENVEQHPSTLSVQEGDSAVIKCTYSDSASNYFPWYKQELGKRPQLIIDIRSNVGEKKDQRIAVTLNKTAKHFSLHITETQPEDSAVYFCAASSLREGYSTLTFGKGTMLLVSP
Vbeta: NAGVTQTPKFRVLKTGQSMTLLCAQDMNHEYMYWYRQDPGMGLRLIHYSVGEGTTAKGEVPDGYNVSRLKKQNFLLGLESAAPSQTSVYFCASSSTDLNEQFFGPGTRLTVL
**Q.** Does B7 bind [4]?
**A.** Result: recognises

B8: TCR2 (TCR, V domains shown)
Valpha: ILNVEQSPQSLHVQEGDSTNFTCSFPSSNFYALHWYRWETAKSPEALFVMTLNGDEKKKGRISATLNTKEGYSYLYIKGSQPEDSATYLCAFSNARLMFGDGTQLVVKP
Vbeta: DTAVSQTPKYLVTQMGNDKSIKCEQNLGHDTMYWYKQDSKKFLKIMFSYNNKELIINETVPNRFSPKSPDKAHLNLHINSLELGDSAVYFCASSQEAGTGSYNEQFFGPGTRLTVL
**Q.** Does B8 bind [1]?
**A.** Result: recognises

B9: TCR22 (TCR, V domains shown)
Valpha: AQSVAQPEDQVNVAEGNPLTVKCTYSVSGNPYLFWYVQYPNRGLQFLLKYITGDNLVKGSYGFEAEFNKSQTSFHLKKPSALVSDSALYFCAVRDDNAGNMLTFGGGTRLMVKP
Vbeta: DTGVSQNPRHKITKRGQNVTFRCDPISEHNRLYWYRQTLGQGPEFLTYFQNEAQLEKSRLLSDRFSAERPKGSFSTLEIQRTEQGDSAMYLCASSLANTGELFFGEGSRLTVL
**Q.** Does B9 bind [2]?
**A.** Result: recognises

B10: TCR19 (TCR, V domains shown)
Valpha: AQKVTQAQTEISVVEKEDVTLDCVYETRDTTYYLFWYKQPPSGELVFLIRRNSFDEQNEISGRYSWNFQKSTSSFNFTITASQVVDSAVYFCALLSSGGYNKLIFGAGTRLAVHP
Vbeta: NAGVTQTPKFQVLKTGQSMTLQCAQDMNHEYMSWYRQDPGMGLRLIHYSVGAGITDQGEVPNGYNVSRSTTEDFPLRLLSAAPSQTSVYFCASSYLSPAAGFSYEQYFGPGTRLTVT
**Q.** Does B10 bind [2]?
**A.** Result: recognises

B11: TCR4 (TCR, V domains shown)
Valpha: AQSVAQPEDQVNVAEGNPLTVKCTYSVSGNPYLFWYVQYPNRGLQFLLKYITGDNLVKGSYGFEAEFNKSQTSFHLKKPSALVSDSALYFCAVRDAMGGSYIPTFGRGTSLIVHP
Vbeta: DGGITQSPKYLFRKEGQNVTLSCEQNLNHDAMYWYRQDPGQGLRLIYYSQIVNDFQKGDIAEGYSVSREKKESFPLTVTSAQKNPTAFYLCASSTGISEQFFGPGTRLTVL
**Q.** Does B11 bind [1]?
**A.** Result: recognises

B12: TCR33 (TCR, V domains shown)
Valpha: AQSVTQLGSHVSVSEGALVLLRCNYSSSVPPYLFWYVQYPNQGLQLLLKYTSAATLVKGINGFEAEFKKSETSFHLTKPSAHMSDAAEYFCAVSDSSYKLIFGSGTRLLVRP
Vbeta: DAGVIQSPRHEVTEMGQEVTLRCKPISGHDYLFWYRQTMMRGLELLIYFNNNVPIDDSGMPEDRFSAKMPNASFSTLKIQPSEPRDSAVYFCASQSGDTQYFGPGTRLTVL
**Q.** Does B12 bind [3]?
**A.** Result: recognises

B13: TCR23 (TCR, V domains shown)
Valpha: LAKTTQPISMDSYEGQEVNITCSHNNIATNDYITWYQQFPSQGPRFIIQGYKTKVTNEVASLFIPADRKSSTLSLPRVSLSDTAVYYCLVGDIPSVDGGFKTIFGAGTRLFVKA
Vbeta: EAQVTQNPRYLITVTGKKLTVTCSQNMNHEYMSWYRQDPGLGLRQIYYSMNVEVTDKGDVPEGYKVSRKEKRNFPLILESPSPNQTSLYFCASSTSLELDQPQHFGDGTRLSIL
**Q.** Does B13 bind [2]?
**A.** Result: recognises

B14: TCR28 (TCR, V domains shown)
Valpha: AQKITQTQPGMFVQEKEAVTLDCTYDTSDQSYGLFWYKQPSSGEMIFLIYQGSYDEQNATEGRYSLNFQKARKSANLVISASQLGDSAMYFCAMRGDPQGAQKLVFGQGTRLTINP
Vbeta: ETGVTQTPRHLVMGMTNKKSLKCEQHLGHNAMYWYKQSAKKPLELMFVYSLEERVENNSVPSRFSPECPNSSHLFLHLHTLQPEDSALYLCASSQGRGKNIQYFGAGTRLSVL
**Q.** Does B14 bind [4]?
**A.** Result: recognises
